B1: LINE1-mini (parent)
chain: GGCAGAGCUCAACACAGCGUGGCAAAGUGGCUGUGGCUAGACUGCC

Variants of: B1
Experiment: self-cleavage, relative activity (ratio to wild type); higher = more cleavage; in vitro, sequencing; the parent is a self-cleaving ribozyme

Going from A24G A26C to A14G G17C, the self-cleavage falls from 1.06 to 0.09.

Going from A14G U34G to A6G G30U, the self-cleavage falls from 0.3 to 0.13.

Going from A25C G27U to G19U U34C, the self-cleavage falls from 0.46 to 0.17.

First: G19U U34G
Second: C42G G44C
The self-cleavage of the first is higher: 0.16 for the first, 0.06 for the second.

Compared with G33U U38G, A6G G22A is higher in self-cleavage: 0.04 for the first, 0.11 for the second.

Going from G2A U34A to G1A A11C, the self-cleavage falls from 0.18 to 0.04.

Compared with G19C C23U, A6G A24G is lower in self-cleavage: 0.83 for the first, 0.12 for the second.

First: G29U C42G
Second: A16U A24C
The self-cleavage of the first is lower: 0.04 for the first, 0.1 for the second.

First: C3U G17C
Second: C37U A39C
The self-cleavage of the first is higher: 0.18 for the first, 0.14 for the second.

First: G2C A11C
Second: C10G U34A
The self-cleavage of the first is lower: 0.02 for the first, 0.03 for the second.

Going from A16G U32C to C8A A26U, the self-cleavage rises from 0.26 to 0.3.

First: U28C A41C
Second: C3A G7U
The self-cleavage of the first is lower: 0.03 for the first, 0.4 for the second.

Compared with G5A G36A, U38A A41U is lower in self-cleavage: 0.28 for the first, 0.1 for the second.

First: C13G G36U
Second: G27U C31A
The self-cleavage of the first is lower: 0.1 for the first, 0.46 for the second.

Compared with U38G C42A, G1C G5C is lower in self-cleavage: 0.03 for the first, 0.02 for the second.

Going from G17U U38G to U32C G33U, the self-cleavage rises from 0.08 to 0.13.

Compared with U28C, C10A C42A is lower in self-cleavage: 0.73 for the first, 0.02 for the second.

Compared with U9A C31A, A14U G33C is lower in self-cleavage: 0.07 for the first, 0.05 for the second.

First: G2C U43C
Second: G1A C42U
The self-cleavage of the first is lower: 0.15 for the first, 0.16 for the second.

First: C23A A25U
Second: A12U C37A
The self-cleavage of the first is higher: 0.78 for the first, 0.05 for the second.

First: G33C C46A
Second: U34A C42G
The self-cleavage of the first is lower: 0.03 for the first, 0.04 for the second.

Going from G7C U32G to G29A G30A, the self-cleavage rises from 0.05 to 2.29.

Compared with A4C C42U, A4G G44A is higher in self-cleavage: 0.2 for the first, 0.48 for the second.

Compared with C10U A41G, A11G U28C is lower in self-cleavage: 0.07 for the first, 0.03 for the second.

Going from A11C C18U to C31U C42A, the self-cleavage rises from 0.04 to 0.09.

Going from G1U U34C to C15U G29A, the self-cleavage rises from 0.06 to 1.1.

Compared with A12C C37A, C10G G21A is higher in self-cleavage: 0.02 for the first, 0.18 for the second.

Going from A25G A26G to U20A G44C, the self-cleavage falls from 0.34 to 0.16.

Compared with C23U C42A, G17C G29C is higher in self-cleavage: 0.25 for the first, 0.34 for the second.

Going from C18G G19C to A4C G44U, the self-cleavage falls from 0.83 to 0.13.

Going from C10A A14U to U32G C45U, the self-cleavage rises from 0.05 to 0.12.

Compared with G30U G40A, G1C C3U is higher in self-cleavage: 0.08 for the first, 0.18 for the second.

C13A U32A and G5A C15U are the same in self-cleavage: 0.11 for the first, 0.11 for the second.

First: C13U G19U
Second: C8U G35U
The self-cleavage of the first is lower: 0.23 for the first, 0.42 for the second.

Compared with A41G C42G, U38A A39G is higher in self-cleavage: 0.06 for the first, 0.25 for the second.

Compared with U20C C42G, A25U C37U is lower in self-cleavage: 0.04 for the first, 0.03 for the second.

Going from A12G U43A to U28A U38G, the self-cleavage falls from 0.12 to 0.01.

First: G36A C45U
Second: G7A G27C
The self-cleavage of the first is higher: 0.8 for the first, 0.18 for the second.

Going from G2C U38C to C3G U9A, the self-cleavage rises from 0.04 to 0.27.

Compared with C10A U43G, G5A U9C is higher in self-cleavage: 0 for the first, 0.04 for the second.

Compared with G7C C15G, G1C A25C is higher in self-cleavage: 0.08 for the first, 0.1 for the second.

Work on G1C A25U yielded a self-cleavage of 0.08.
